Measured values as given in patent US10815297B2, “Antagonists of IL17C for the treatment of inflammatory disorders” (MorphoSys AG, priority 2011, dated 2020).

Legend:
Format in all cases: in vivo
[1] = system: BALB/c female mice, LPS-induced acute lung neutrophilia; assay: Intranasal instillation of LPS, mouse model of acute lung neutrophilia; settings: single treatment 5 mg/kg i.p. 24 hours before LPS instillation; BAL 24 hours after LPS
Method: Two independent studies were conducted with one negative mAb and two positive mAbs in the intranasal instillation of Lipopolysaccharide (LPS) mouse model of acute lung neutrophilia, a model which mimics some relevant aspects of COPD (Chronic Obstructive Pulmonary Disease). The effects were measured by Broncho Alveolar Lavage (BAL) inflammatory cell counting.
Several groups of mice were treated with different antibodies and Dexamethasone and compared to the mice subjected to LPS only.
BALB/c female mice from Harlan (France) were used in the study. Mice weight was around 20 g.
Mice were anesthetized by isoflurane inhalation. During the breathing, LPS was instilled intranasally. After 24 h, mice were anesthetized intra-peritoneally (IP) and Broncho Alveolar Lavage procedure was performed. Mice were anesthetized by injection of anaesthetic solution of 0.1 mL per 10 g of the mouse weight. The anaesthetic solution was composed of 18 ml 0.9% NaCl, 0.5 mL xylazine (5 mg/Kg) and 1.5 mL ketamine (75 mg/Kg).
The trachea was exposed through midline incision and canulated (with a mice catheter). BAL was performed twice using 1 mL of sterile PBS buffer. […] The cells were counted using a cell counter (Vet abc, France). […]
For all groups, BAL was performed 24 hours after LPS administration and cell counts were measured.
The results were analyzed using Student t-test. […]

[2] = system: mouse CIA model (DBA1/J mice); assay: Mouse collagen induced arthritis (CIA) model, preventative protocol; settings: 10 mg/kg, 3x week, i.p., day 21 to day 46
Method: (§1) DBA1/J mice (male, 6-7 weeks old, approx 20 gram) were obtained from Centre d'Elevage Regional Janvier (Laval, France). Mice were kept on a 12 hr light/dark cycle (0700-1900). Temperature was maintained at 22° C., and food and water were provided ad libitum.
One day before the experiment, CII solution (2 mg/mL) was prepared with 0.05 M acetic acid and stored at 4° C. Just before the immunization, equal volumes of adjuvant […] and CII were mixed by a homogenizer in a pre-cooled glass bottle in an ice water bath. Extra adjuvant and prolonged homogenization may be required if an emulsion is not formed. 0.1 mL of the emulsion was injected intradermally at the base of the tail of each mouse on day 1, a second booster intradermal injection (CII solution at 2 mg/mL in […] 0.1 mLemulsion) was performed on day 21. […]
(§2) Arthritis was scored according to the method of Khachigian 2006 (Collagen antibody-induced arthritis. (2006) Nature Protocols 1, 2512-6), Lin et al 2007 (supra); Nishida et al. 2004 (Histone deacetylase inhibitor suppression of autoantibody-mediated arthritis in mice via regulation of p16INK4a and p21(WAF1/Cip1) expression. Arthritis Rheum. 10: 3365-76); and Brand et al. 2007 (supra). […]

[3] = system: mouse CIA model (DBA1/J mice); assay: Mouse collagen induced arthritis (CIA) model, therapeutic protocol; settings: 10 mg/kg, 3x week, i.p., day 31 to day 46
Method: as §1
One day before the experiment, CII solution (2 mg/mL) was prepared with 0.05 M acetic acid and stored at 4° C. Just before the immunization, equal volumes of adjuvant […] and CII were mixed by a homogenizer in a pre-cooled glass bottle in an ice water bath. Extra adjuvant and prolonged homogenization may be required if an emulsion is not formed. 0.1 mL of the emulsion was injected intradermally at the base of the tail of each mouse on day 1, a second booster intradermal injection (CII solution at 2 mg/mL in […] 0.1 mLemulsion) was performed on day 21. This immunization method was modified from published methods (Brand et al, 2007, Collagen-induced arthritis. Nature Protocols; vol 2 (5): 1269-1275; Lin et al., 2007, Anti-rheumatic activities of histone deacetylase (HDAC) inhibitors in vivo in collagen-induced arthritis in rodents. Br J Pharmacol. April; 150 (7):829-31).
The therapeutic effects of the antibodies were tested in the mouse CIA model. Mice were randomly divided into equal groups and each group contained 10 mice. All mice were immunized on day 1 and boosted on day 21. Therapeutic dosing lasted from day 31 to day 46. The negative control group was treated with vehicle (PBS) and the positive control group with Enbrel (10 mg/kg, 3× week, i.p.). An antibody of interest was tested at 10 mg/kg, i.p. 3 times per week.
Anti-IL17C antibodies were administered i.p. three times a week at 10 mg/kg. […]
as §2

B1: MOR12762: anti-mouse IL17C HuCAL antibody; CDRs SEQ ID NO: 171-176, VL 177, VH 178; human/mouse chimeric IgG2a (antibody, V domains shown)
VH: EVQLVQSGAEVKKPGESLKISCKGSGYSFNNYWIAWVRQMPGKGLEWMGFIYPSNSATQYSPSFQGQVTISADKSISTAYLQWSSLKASDTAMYYCARDNEYSDSYFDVWGQGTLVTVSS
VL: DIVLTQSPATLSLSPGERATLSCRASQIVSSYLAWYQQKPGQAPRLLIYDASSRATGIPARFSGSGSGTDFTLTISSLEPEDFAVYYCQQSEQVPTTFGQGTKVEIKRT
modifications: mouse IgG2a constant regions; VH; VL
inhibition of the recruitment of inflammatory cells into the BALF [1]: inhibited significantly | inhibition of bone degradation / bone erosion (Larsen score) [2]: significant inhibition | inhibition of inflammation (clinical score) [2]: significant inhibition | inhibition of inflammation / disease progression (clinical score) [3]: significant inhibition
